The chains are these.
B1: wild-type US28 receptor with a C-terminal natural peptide tag (US28-NP) [human cytomegalovirus (HCMV)] / LgBiT-Gαq [not stated] (parent)
chain 1: MTPTTTTAELTTEFDYDEDATPCVFTDVLNQSKPVTLFLYGVVFLFGSIGNFLVIFTITWRRRIQCSGDVYFINLAAADLLFVCTLPLWMQYLLDHNSLASVPCTLLTACFYVAMFASLCFITEIALDRYYAIVYMRYRPVKQACLFSIFWWIFAVIIAIPHFMVVTKKDNQCMTDYDYLEVSYPIILNVELMLGAFVIPLSVISYCYYRISRIVAVSQSRHKGRIVRVLIAVVLVFIIFWLPYHLTLFVDTLKLLKWISSSCEFERSLKRALILTESLAFCHCCLNPLLYVFVGTKFRQELHCLLAEFRQRLFSRDVSWYHSMSFSRRSSPSRRETSSDTLSDEVCRVSQIIP
chain 2: MTLESIMACCLSEEAKEARRINDEIERQLRRDKRDARRELKLLLLGTGESGKSTFIKQMRIIHGSGYSDEDKRGFTKLVYQNIFTAMQAMIRAMDTLKIPYKYEHNKAHAQLVREVDVEKVSAFENPYVDAIKSLWNDPGIQECYDRRREYQLSDSTKYYLNDLDRVADPAYLPTQQDVLRVRVPTTGIIEYPFDLQSVIFRMVDVGGQRSERRKWIHCFENVTSIMFLVALSEYDQVLVESDNENRMEESKALFRTIITYPWFQNSSVILFLNKKDLLEEKIMYSHLVDYFPEYDGPQRDAQAAREFILKMFVDLNPDSDKIIYSHFTCATDTENIRFVFAAVKDTILQLNLKEYNLV
B2: wild-type US28 receptor with a C-terminal natural peptide tag (US28-NP) [human cytomegalovirus (HCMV)] / LgBiT-Gα12 [not stated] (parent)
chain 1: B1 chain 1
chain 2: MSGVVRTLSRCLLPAEAGGARERRAGSGARDAEREARRRSRDIDALLARERRAVRRLVKILLLGAGESGKSTFLKQMRIIHGREFDQKALLEFRDTIFDNILKGSRVLVDARDKLGIPWQYSENEKHGMFLMAFENKAGLPVEPATFQLYVPALSALWRDSGIREAFSRRSEFQLGESVKYFLDNLDRIGQLNYFPSKQDILLARKATKGIVEHDFVIKKIPFKMVDVGGQRSQRQKWFQCFDGITSILFMVSSSEYDQVLMEDRRTNRLVESMNIFETIVNNKLFFNVSIILFLNKMDLLVEKVKTVSIKKHFPDFRGDPHRLEDVQRYLVQCFDRKRRNRSKPLFHHFTTAIDTENVRFVFHAVKDTILQENLKDIMLQ

The variants in the first assay derive from B1. The assay is described as follows: NanoBiT nLuc complementation assay in live HEK-293 cells (Nano-Glo live cell assay), area under the curve. The settings on record: with LgBiT-Gαq, 18 hours post-transfection media exchanged with serum-free DMEM, 6 hours later luciferase activity monitored for 60 minutes, parent: 2.9e+07, read off a plot.
For chain 1 K223A, the response (Arbitrary Units) was determined as 1.7e+07.
Still for that read-out and setting: the result for chain 1 S220A reads 3e+07.
For the variant chain 1 D128A R129A Y130A, the response (Arbitrary Units) turned out to be 6e+06.
Same read-out and setting: then chain 1 S218A, with 1.8e+07; and chain 1 R225A, with 1.6e+07.

The variants in a further assay derive from B2. Described as above. The note with it: with LgBiT-Gα12, 18 hours post-transfection media exchanged with serum-free DMEM, 6 hours later luciferase activity monitored for 60 minutes, parent: 2.2e+07, read off a plot.
Take chain 1 K223A: the response (Arbitrary Units) was 8.9e+06.
Still for that read-out and setting: the result for chain 1 S220A reads 1.7e+07; that for chain 1 S218A, 6.8e+06; that for chain 1 R225A, 1.1e+07.
For chain 1 D128A R129A Y130A, the response (Arbitrary Units) is 2.8e+06.

The record behind these values is publication PMC11784217.
